Measurements: PMC12678314, “Redox regulation of glutamate-1-semialdehyde aminotransferase modulates the synthesis of 5-aminolevulinic acid in Arabidopsis” (Frontiers in Plant Science, 2025)

Biological target: the molecule itself
Experiment: native gel or EMSA; purified His-GSAATAt (300 µM), no pretreatment, non-reducing/non-denaturing polyacrylamide gel; dimer to monomers

B1: recombinant His-tagged Arabidopsis glutamate-1-semialdehyde aminotransferase 1, wild type (enzyme)
chain: not shown
notes: Arabidopsis thaliana GSAAT1 (AtGSA1, AT5G63570), mature protein without the transit peptide 1-38 according to UniProt P42799; pET-28a(+); the methods remove 1-38; also called His-GSAAT; His-GSAATAt; source: E. coli Rosetta, purified (Ni-NTA); not shown: His6, N-terminal, kept
In the case of B1, the “stoichiometry N” value is reported as 2.
